{"source": "paper doi:10.1101/038398", "binders": {"B1": {"name": "Nitric oxide synthase interacting protein (NOSIP), full length, recombinant (natural protein)", "chain": "MTRHGKNCTAGAVYTYHEKKKDTAASGYGTQNIRLSRDAVKDFDCCCLSLQPCHDPVVTPDGYLYEREAILEYILHQKKEIARQMKAYEKQRGTRREEQKELQRAASQDHVRGFLEKESAIVSRPLNPFTAKALSGTSPDDVQPGPSVGPPSKDKDKVLPSFWIPSLTPEAKATKLEKPSRTVTCPMSGKPLRMSDLTPVHFTPLDSSVDRVGLITRSERYVCAVTRDSLSNATPCAVLRPSGAVVTLECVEKLIRKDMVDPVTGDKLTDRDIIVLQRGGTGFAGSGVKLQAEKSRPVMQA"}}, "key": {"[1]": {"molecular_target": "human iNOS oxygenase domain, recombinant (human)", "sequence (P35228 whole entry, the tested form may be a part)": "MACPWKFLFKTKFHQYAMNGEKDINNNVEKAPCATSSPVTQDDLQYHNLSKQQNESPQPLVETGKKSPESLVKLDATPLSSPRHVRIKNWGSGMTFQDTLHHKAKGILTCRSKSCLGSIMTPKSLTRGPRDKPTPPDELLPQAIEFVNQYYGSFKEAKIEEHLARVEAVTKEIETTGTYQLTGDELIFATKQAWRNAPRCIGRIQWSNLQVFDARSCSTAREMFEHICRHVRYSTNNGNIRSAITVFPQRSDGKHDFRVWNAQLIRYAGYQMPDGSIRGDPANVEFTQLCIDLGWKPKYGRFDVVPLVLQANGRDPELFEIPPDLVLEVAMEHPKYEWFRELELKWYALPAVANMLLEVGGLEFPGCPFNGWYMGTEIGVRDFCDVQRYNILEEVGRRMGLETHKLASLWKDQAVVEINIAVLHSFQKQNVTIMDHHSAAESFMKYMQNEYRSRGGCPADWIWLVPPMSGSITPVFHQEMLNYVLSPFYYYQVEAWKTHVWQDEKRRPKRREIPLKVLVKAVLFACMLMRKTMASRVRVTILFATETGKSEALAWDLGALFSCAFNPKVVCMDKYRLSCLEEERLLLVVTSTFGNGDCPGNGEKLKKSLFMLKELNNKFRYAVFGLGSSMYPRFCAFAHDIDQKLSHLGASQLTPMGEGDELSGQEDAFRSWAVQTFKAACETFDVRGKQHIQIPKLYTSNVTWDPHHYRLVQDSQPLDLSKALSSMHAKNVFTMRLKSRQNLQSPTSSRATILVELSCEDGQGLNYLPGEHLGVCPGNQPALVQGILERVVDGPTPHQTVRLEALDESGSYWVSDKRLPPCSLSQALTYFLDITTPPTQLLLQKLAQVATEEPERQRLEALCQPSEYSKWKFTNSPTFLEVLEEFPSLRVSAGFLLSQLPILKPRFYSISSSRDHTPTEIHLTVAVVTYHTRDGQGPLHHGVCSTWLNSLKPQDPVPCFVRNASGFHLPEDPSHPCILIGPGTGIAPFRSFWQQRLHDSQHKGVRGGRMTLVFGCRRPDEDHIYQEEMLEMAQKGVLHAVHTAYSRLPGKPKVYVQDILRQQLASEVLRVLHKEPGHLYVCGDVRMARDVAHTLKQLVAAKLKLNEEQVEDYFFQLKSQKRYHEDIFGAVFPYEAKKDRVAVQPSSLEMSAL", "assay": "SPR"}, "[2]": {"molecular_target": "human iNOS oxygenase domain, recombinant (human)", "assay": "ITC"}}, "data": [{"binder": "B1", "values": [{"measurement": "Kd", "setting": "[1]", "value": 7.11, "unit": "nM"}, {"measurement": "dH", "setting": "[2]", "value": -38.2, "unit": "kcal/mol"}, {"measurement": "stoichiometry N", "setting": "[2]", "value": 0.505}]}]}
